According to patent publication US20200262867A1 (WNTRX PHARMACEUTICALS, published 2020):
*1 amine or outer side, *2 acyl side, *3 side chain or, on linkers, in order; H or OH if unused. Bridges are numbered along the chain shown (N, C = ends). Primed or numbered codes have the meaning given here. Where no end group is shown, it is not given here. Side-chain parts run from the residue outwards. [ ]: non-standard residue; d: D form. The star is where a group is joined. peptoid‑Q = (5-amino-5-oxopentyl)glycine, N-substituted glycine, NC(=O)CCCCN(CC(=O)[*:2])[*:1]; NMeR′ = N-methylarginine (methylation site not shown in the text); Diphenylacetyl = O=C(C(c1ccccc1)c1ccccc1)*; 2Nal = N[C@@H](Cc1ccc2ccccc2c1)C(=O)O; Hydrocinnamoyl = O=C(CCc1ccccc1)*; NMeR = CN[C@@H](CCCNC(=N)N)C(=O)O; Palmitoyl = CCCCCCCCCCCCCCCC(=O)*; Ala(cPr) = N[C@@H](CC1CC1)C(=O)O; hArg = N=C(N)NCCCC[C@H](N)C(=O)O; NMeE = CN[C@@H](CCC(=O)O)C(=O)O; NMeQ = CN[C@@H](CCC(N)=O)C(=O)O; dNMeQ = CN[C@H](CCC(N)=O)C(=O)O; Cha = N[C@@H](CC1CCCCC1)C(=O)O; αMeL = CC(C)C[C@](C)(N)C(=O)O; Cba = N[C@@H](CC1CCC1)C(=O)O; S5 = C=CCCC[C@](C)(N)C(=O)O; Ac6c = NC1(C(=O)O)CCCCC1; Nle = CCCC[C@H](N)C(=O)O; PEG4′ = not defined here; Hexanoyl = CCCCCC(=O)*; Propionyl = CCC(=O)*; βAla = NCCC(=O)O

Columns and labels:
[1] = biological target: T1, β-catenin (UniProt P35222 1-781, limits assumed); assay: ALPHA Screen (BCL9/β-catenin);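 note: bead proximity readout with the polypeptide linked to donor beads and β-catenin fixed on acceptor beads, their binding bringing the beads close enough to emit signal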
T1 construct: also called beta-catenin
T1 sequence (looked up): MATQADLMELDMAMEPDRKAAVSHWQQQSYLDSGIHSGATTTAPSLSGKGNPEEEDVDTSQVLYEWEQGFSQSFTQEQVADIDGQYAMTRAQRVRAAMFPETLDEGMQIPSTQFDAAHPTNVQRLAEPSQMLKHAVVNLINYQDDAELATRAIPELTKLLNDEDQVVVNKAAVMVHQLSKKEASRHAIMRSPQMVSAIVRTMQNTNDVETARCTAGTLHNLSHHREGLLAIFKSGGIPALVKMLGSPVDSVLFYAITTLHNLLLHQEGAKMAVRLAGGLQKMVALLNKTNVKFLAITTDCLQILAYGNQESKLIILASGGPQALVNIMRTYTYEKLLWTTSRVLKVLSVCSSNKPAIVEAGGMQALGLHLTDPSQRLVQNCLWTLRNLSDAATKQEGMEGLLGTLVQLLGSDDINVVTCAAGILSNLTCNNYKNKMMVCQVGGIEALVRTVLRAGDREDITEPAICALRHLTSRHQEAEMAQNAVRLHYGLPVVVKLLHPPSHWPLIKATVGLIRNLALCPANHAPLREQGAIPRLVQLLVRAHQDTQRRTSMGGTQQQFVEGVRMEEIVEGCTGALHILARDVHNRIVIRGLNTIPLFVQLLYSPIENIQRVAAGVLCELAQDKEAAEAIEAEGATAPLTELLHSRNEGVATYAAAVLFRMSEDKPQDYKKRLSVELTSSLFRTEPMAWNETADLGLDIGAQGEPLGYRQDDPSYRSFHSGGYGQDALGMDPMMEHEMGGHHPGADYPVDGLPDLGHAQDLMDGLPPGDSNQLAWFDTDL
Text: In this assay, a polypeptide is conjugated to a donor bead and its target protein (i.e., β-catenin) is attached to an acceptor bead. When the two beads are in proximity due to the binding of the polypeptide to the target protein, a signal is generated and the binding affinity of the polypeptide can be quantitatively calculated. The assay may be conducted in the presence or absence of an unconjugated control polypeptide.

[2] = biological target: T1, β-catenin; assay: cell-based or functional assay
[3] = biological target: T2, β-catenin, P35222; assay: cell-based or functional assay
T2 chain: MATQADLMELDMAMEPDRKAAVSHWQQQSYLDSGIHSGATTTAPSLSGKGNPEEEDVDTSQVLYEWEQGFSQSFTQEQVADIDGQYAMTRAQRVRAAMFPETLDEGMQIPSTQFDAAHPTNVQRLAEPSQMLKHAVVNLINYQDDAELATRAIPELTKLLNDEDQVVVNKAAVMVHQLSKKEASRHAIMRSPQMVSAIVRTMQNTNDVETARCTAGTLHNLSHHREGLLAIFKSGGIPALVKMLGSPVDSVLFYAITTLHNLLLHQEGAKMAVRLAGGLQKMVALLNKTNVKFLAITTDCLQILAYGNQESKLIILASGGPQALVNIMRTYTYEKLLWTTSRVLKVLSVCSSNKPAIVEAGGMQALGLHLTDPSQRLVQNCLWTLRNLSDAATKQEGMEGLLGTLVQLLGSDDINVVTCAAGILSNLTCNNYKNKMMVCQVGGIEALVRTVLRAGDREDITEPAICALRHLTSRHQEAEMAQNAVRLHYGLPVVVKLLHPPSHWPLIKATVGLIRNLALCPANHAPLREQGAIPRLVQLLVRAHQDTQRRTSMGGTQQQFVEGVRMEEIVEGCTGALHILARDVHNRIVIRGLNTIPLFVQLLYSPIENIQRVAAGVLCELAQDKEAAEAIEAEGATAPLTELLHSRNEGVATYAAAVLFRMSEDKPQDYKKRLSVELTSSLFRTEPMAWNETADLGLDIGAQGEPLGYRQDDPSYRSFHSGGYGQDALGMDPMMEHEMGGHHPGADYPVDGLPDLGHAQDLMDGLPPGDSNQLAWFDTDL

[4] = biological target: T2, β-catenin, P35222; assay: ALPHA Screen (BCL9/β-catenin);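 note: bead proximity readout with the polypeptide linked to donor beads and β-catenin fixed on acceptor beads, their binding bringing the beads close enough to emit signal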

B1: SEQ ID NO: 116 (peptide)
peptide: L[dNMeQ]TLR[S5]I[dNMeQ]R[S5][Cba][2Nal]
modifications: staple 6-10; not fully specified (N-terminus, C-terminus); printed as L(N-methylQ)TLRXI(N-methylQ)RX(CBA)(2-Nal), X/X stapled, (S) α-methyl, N-terminal Ac, C-terminal NH2
[1]
  IC50: 26.9 µM

B2: SEQ ID NO: 4 (peptide)
peptide: Ac-RSLQTLR[S5]IQR[S5]L[2Nal]-NH2
modifications: staple 8-12; not fully specified; printed as RSLQTLRXIQRXL(2-Nal)
[1]
  IC50: 1.91 µM

B3: SEQ ID NO: 137 (peptide)
peptide: Hydrocinnamoyl-L[NMeQ]TLR[S5]IQR[S5][Cba][2Nal]-NH2
modifications: staple 6-10; also: N-methyl-Gln at 2: filing says both D and L
[1]
  IC50: 8.36 µM

B4: SEQ ID NO: 180 (peptide)
peptide: Ac-HRQRSLQTLR[S5]IQR[S5][Cha][2Nal]-NH2
modifications: staple 11-15
SMILES: CC[C@H](C)[C@@H]1NC(=O)[C@@](C)(NC(=O)[C@H](CCCNC(=N)N)NC(=O)[C@H](CC(C)C)NC(=O)[C@@H](NC(=O)[C@H](CCC(N)=O)NC(=O)[C@H](CC(C)C)NC(=O)[C@H](CO)NC(=O)[C@H](CCCNC(=N)N)NC(=O)[C@H](CCC(N)=O)NC(=O)[C@H](CCCNC(=N)N)NC(=O)[C@H](Cc2c[nH]cn2)NC(C)=O)[C@@H](C)O)CCCC=CCCC[C@@](C)(C(=O)N[C@@H](CC2CCCCC2)C(=O)N[C@@H](Cc2ccc3ccccc3c2)C(N)=O)NC(=O)[C@H](CCCNC(=N)N)NC(=O)[C@H](CCC(N)=O)NC1=O
[2]
  IC50, Wnt/Beta-Catenin-LEF-TCF-bla HCT116 inhibitor screen: 2.21 µM
[1]
  IC50: 0.138 µM

B5: SEQ ID NO: 162 (peptide)
peptide: Ac-HRQRSLQTLR[S5]IQR[S5][Ala(cPr)][2Nal]-NH2
modifications: staple 11-15
[2]
  IC50, Wnt/Beta-Catenin-LEF-TCF-bla HCT116 inhibitor screen: 7.05 µM
[1]
  IC50: 0.322 µM

B6: SEQ ID NO: 169 (peptide)
peptide: Ac-HRQRSL[peptoid‑Q]TLR[S5]IQR[S5][Cba][2Nal]-NH2
modifications: staple 11-15
[1]
  IC50: 0.328 µM

B7: SEQ ID NO: 34a (peptide)
peptide: LQTLR[S5]IQR[S5]L[2Nal][βAla][βAla]GRKKRRQRRRPQK([PEG4′-Palmitoyl])
modifications: staple 6-10
[3]
  IC50, Colo320DM cell viability: 20 µM
[4]
  IC50: 1.38 µM

B8: SEQ ID NO: 126 (peptide)
peptide: Ac-L[NMeQ]T[αMeL]R[S5]IQR[S5][Cba][2Nal]-NH2
modifications: staple 6-10; not fully specified; printed as L(N-methylQ)T(α-methylL)RXIQRX(CBA)(2-Nal)
[1]
  IC50: 7.43 µM

B9: SEQ ID NO: 138 (peptide)
peptide: {2‑cyclohexylacetyl}-L[NMeQ]TLR[S5]IQR[S5][Cba][2Nal]-NH2
modifications: staple 6-10; also: N-methyl-Gln at 2: filing says both D and L
[1]
  IC50: 3.82 µM

B10: SEQ ID NO: 132 (peptide)
peptide: Ac-L[NMeQ]TL[hArg][S5]IQR[S5][Cba][2Nal]-NH2
modifications: staple 6-10; not fully specified; printed as L(N-methylQ)TL(homoR)XIQRX(CBA)(2-Nal)
[1]
  IC50: 11.2 µM

B11: SEQ ID NO: 52 (peptide)
peptide: LQTLR[Nle]IQR[Nle]L[2Nal]
[1]
  IC50: 4.7 µM

B12: SEQ ID NO: 136 (peptide)
peptide: Hexanoyl-L[NMeQ]TLR[S5]IQR[S5][Cba][2Nal]-NH2
modifications: staple 6-10; also: N-methyl-Gln at 2: filing says both D and L
[1]
  IC50: 3.52 µM

B13: SEQ ID NO: 167 (peptide)
peptide: Ac-HRQ[hArg]SLQTLR[S5]IQR[S5][Cba][2Nal]-NH2
modifications: staple 11-15
[1]
  IC50: 0.356 µM

B14: SEQ ID NO: 140 (peptide)
peptide: {3,5‑dihydroxybenzoic acid}-L[NMeQ]TLR[S5]IQR[S5][Cba][2Nal]-NH2
modifications: staple 6-10; also: N-methyl-Gln at 2: filing says both D and L
[1]
  IC50: 8.16 µM

B15: SEQ ID NO: 168 (peptide)
peptide: Ac-HRQ[NMeR]SLQTLR[S5]IQR[S5][Cba][2Nal]-NH2
modifications: staple 11-15
[1]
  IC50: 0.434 µM

B16: SEQ ID NO: 135 (peptide)
peptide: Propionyl-L[NMeQ]TLR[S5]IQR[S5][Cba][2Nal]-NH2
modifications: staple 6-10; also: N-methyl-Gln at 2: filing says both D and L
[1]
  IC50: 8.54 µM

B17: SEQ ID NO: 127 (peptide)
peptide: Ac-LQTLR[S5]IQR[S5][Cha][2Nal]-NH2
modifications: staple 6-10
SMILES: CC[C@H](C)[C@@H]1NC(=O)[C@@](C)(NC(=O)[C@H](CCCNC(=N)N)NC(=O)[C@H](CC(C)C)NC(=O)[C@@H](NC(=O)[C@H](CCC(N)=O)NC(=O)[C@H](CC(C)C)NC(C)=O)[C@@H](C)O)CCCC=CCCC[C@@](C)(C(=O)N[C@@H](CC2CCCCC2)C(=O)N[C@@H](Cc2ccc3ccccc3c2)C(N)=O)NC(=O)[C@H](CCCNC(=N)N)NC(=O)[C@H](CCC(N)=O)NC1=O
[1]
  IC50: 10.1 µM

B18: SEQ ID NO: 154 (peptide)
peptide: Ac-HR[NMeE]RSL[NMeQ]TLR[S5]IQR[S5][Cba][2Nal]-NH2
modifications: staple 11-15
[2]
  IC50, Wnt/Beta-Catenin-LEF-TCF-bla HCT116 inhibitor screen: 2.26 µM
[1]
  IC50: 0.661 µM

B19: SEQ ID NO: 163 (peptide)
peptide: HRQRSLQT[Cha]R[S5]IQR[S5][Cba][2Nal]
modifications: staple 11-15; not fully specified (residues 3, 7, N-terminus, C-terminus); printed as HR(N-methylQ)RSL(N-methylQ)T(Cha)RXIQRX(CBA)(2-Nal), X/X stapled, (S) α-methyl, N-terminal Ac, C-terminal NH2
[2]
  IC50, Wnt/Beta-Catenin-LEF-TCF-bla HCT116 inhibitor screen: 4.43 µM
[1]
  IC50: 0.195 µM

B20: SEQ ID NO: 177 (peptide)
peptide: Ac-HRQRSLQTLR[S5]IQR[S5][Ac6c][2Nal]-NH2
modifications: staple 11-15
[2]
  IC50, Wnt/Beta-Catenin-LEF-TCF-bla HCT116 inhibitor screen: 4.45 µM
[1]
  IC50: 0.211 µM

B21: SEQ ID NO: 181 (peptide)
peptide: Ac-HR[NMeQ]RSL[NMeQ]TLR[S5]IQR[S5][Cha][2Nal]-NH2
modifications: staple 11-15; also: N-methylQ at 3 and 7: D or L (both stated)
[2]
  IC50, Wnt/Beta-Catenin-LEF-TCF-bla HCT116 inhibitor screen: 4.46 µM
[1]
  IC50: 0.186 µM

B22: SEQ ID NO: 147 (peptide)
peptide: Ac-HRQRSLQTLR[S5]IQR[S5][Cba][2Nal]-NH2
modifications: staple 11-15
[2]
  IC50, Wnt/Beta-Catenin-LEF-TCF-bla HCT116 inhibitor screen: 1.54 µM
[1]
  IC50: 0.186 µM

B23: SEQ ID NO: 128 (peptide)
peptide: Ac-LQTL[NMeR′][S5]IQ[NMeR′][S5][Cba][2Nal]-NH2
modifications: staple 6-10; not fully specified (residue 2); printed as L(N-methylQ)TL(N-methylR)XIQ(N-methylR)X(CBA)(2-Nal)
[1]
  IC50: 29.5 µM

B24: SEQ ID NO: 133 (peptide)
peptide: Ac-L[NMeQ]TLR[S5]IQ[hArg][S5][Cba][2Nal]-NH2
modifications: staple 6-10; also: N-methyl-Gln at 2: filing says both D and L
[1]
  IC50: 9.2 µM

B25: SEQ ID NO: 108 (peptide)
peptide: L[dNMeQ]TLR[S5]IQR[S5][Cba][2Nal]
modifications: staple 6-10; not fully specified (N-terminus, C-terminus); printed as L(N-methylQ)TLRXIQRX(CBA)(2-Nal), X/X stapled, (S) α-methyl, N-terminal Ac, C-terminal NH2
[2]
  IC50, Wnt/Beta-Catenin-LEF-TCF-bla HCT116 inhibitor screen: 3.16 µM
[1]
  IC50: 0.408 µM

B26: SEQ ID NO: 139 (peptide)
peptide: Diphenylacetyl-L[NMeQ]TLR[S5]IQR[S5][Cba][2Nal]-NH2
modifications: staple 6-10; also: N-methyl-Gln at 2: filing says both D and L
[1]
  IC50: 4.58 µM
